Measured values as given in the supplement of paper PMC10065799, “High-throughput profiling of sequence recognition by tyrosine kinases and SH2 domains using bacterial peptide display” (eLife, 2023).

Columns and labels:
EPHB2 = EPHB2 (UniProt P29323); assay: phosphorylation enrichment, bacterial display (enrichment ratio); higher = better substrate or ligand; peptides without Tyr show the background
FGFR3 = FGFR3 (UniProt P22607); assay: as above
FGFR1 = FGFR1 (UniProt P11362); assay: as above
Jak2 = Jak2 (UniProt O60674); assay: as above
EPHB1 = EPHB1 (UniProt P54762); assay: as above
MERTK = MERTK (UniProt Q12866); assay: as above
c-Src = assay: as above
Fer (mouse) = assay: as above
c-Abl (mouse) = assay: as above
Fyn = Fyn (UniProt P06241); assay: as above
Hck = Hck (UniProt P08631); assay: as above
Fes = Fes (UniProt P07332); assay: as above
AncSZ = assay: as above
SHP2-C SH2 = assay: SH2 binding enrichment of the phosphorylated peptide, bacterial display (enrichment ratio); higher = better substrate or ligand; peptides without Tyr show the background
Grb2 SH2 = Grb2 SH2 (UniProt P62993); assay: as above
c-Src SH2 = assay: as above
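For SH2 binding enrichment of the phosphorylated peptide, bacterial display in this document: peptide library displayed on the E. coli surface as eCPX fusions, selected cells deep-sequenced, score is each peptide's frequency after selection divided by its frequency in the input.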
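For phosphorylation enrichment, bacterial display in this document: 11-residue human phosphosite peptides and single-mutation variants displayed on the E. coli surface, counted by deep sequencing, each peptide's frequency after selection divided by its frequency in the unselected input library; frequency after pTyr selection over input frequency; kinase dosed for 20-30% of maximal phosphorylation in three min.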

Chain of Fyn (P06241 whole entry, looked up): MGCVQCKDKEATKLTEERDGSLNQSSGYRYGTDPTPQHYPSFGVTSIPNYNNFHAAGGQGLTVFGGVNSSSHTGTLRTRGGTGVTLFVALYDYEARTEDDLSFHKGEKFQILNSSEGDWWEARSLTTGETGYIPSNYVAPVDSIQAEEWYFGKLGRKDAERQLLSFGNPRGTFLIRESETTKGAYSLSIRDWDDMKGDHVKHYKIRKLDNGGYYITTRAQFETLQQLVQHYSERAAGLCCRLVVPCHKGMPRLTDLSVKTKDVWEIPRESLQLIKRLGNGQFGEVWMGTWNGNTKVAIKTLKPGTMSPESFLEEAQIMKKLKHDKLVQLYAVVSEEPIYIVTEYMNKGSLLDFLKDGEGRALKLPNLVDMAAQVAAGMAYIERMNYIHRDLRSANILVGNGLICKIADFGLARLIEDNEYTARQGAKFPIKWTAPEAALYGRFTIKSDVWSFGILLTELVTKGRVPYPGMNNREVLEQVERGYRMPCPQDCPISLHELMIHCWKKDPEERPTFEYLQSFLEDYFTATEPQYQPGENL
Chain of Hck (P08631 whole entry, looked up): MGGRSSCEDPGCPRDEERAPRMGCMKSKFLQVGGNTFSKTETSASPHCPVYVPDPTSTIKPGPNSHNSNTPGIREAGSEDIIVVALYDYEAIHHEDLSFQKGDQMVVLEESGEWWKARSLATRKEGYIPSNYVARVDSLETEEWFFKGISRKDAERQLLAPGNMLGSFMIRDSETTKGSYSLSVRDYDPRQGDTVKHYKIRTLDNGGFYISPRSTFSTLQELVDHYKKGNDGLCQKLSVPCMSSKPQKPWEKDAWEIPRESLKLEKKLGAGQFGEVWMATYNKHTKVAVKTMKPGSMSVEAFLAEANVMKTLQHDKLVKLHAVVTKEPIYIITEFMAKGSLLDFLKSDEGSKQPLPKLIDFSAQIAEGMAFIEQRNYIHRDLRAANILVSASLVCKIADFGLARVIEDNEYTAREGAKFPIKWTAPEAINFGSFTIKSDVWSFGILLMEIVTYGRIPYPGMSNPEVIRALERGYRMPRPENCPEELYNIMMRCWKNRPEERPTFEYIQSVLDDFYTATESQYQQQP
Chain of Jak2 (O60674 whole entry, looked up): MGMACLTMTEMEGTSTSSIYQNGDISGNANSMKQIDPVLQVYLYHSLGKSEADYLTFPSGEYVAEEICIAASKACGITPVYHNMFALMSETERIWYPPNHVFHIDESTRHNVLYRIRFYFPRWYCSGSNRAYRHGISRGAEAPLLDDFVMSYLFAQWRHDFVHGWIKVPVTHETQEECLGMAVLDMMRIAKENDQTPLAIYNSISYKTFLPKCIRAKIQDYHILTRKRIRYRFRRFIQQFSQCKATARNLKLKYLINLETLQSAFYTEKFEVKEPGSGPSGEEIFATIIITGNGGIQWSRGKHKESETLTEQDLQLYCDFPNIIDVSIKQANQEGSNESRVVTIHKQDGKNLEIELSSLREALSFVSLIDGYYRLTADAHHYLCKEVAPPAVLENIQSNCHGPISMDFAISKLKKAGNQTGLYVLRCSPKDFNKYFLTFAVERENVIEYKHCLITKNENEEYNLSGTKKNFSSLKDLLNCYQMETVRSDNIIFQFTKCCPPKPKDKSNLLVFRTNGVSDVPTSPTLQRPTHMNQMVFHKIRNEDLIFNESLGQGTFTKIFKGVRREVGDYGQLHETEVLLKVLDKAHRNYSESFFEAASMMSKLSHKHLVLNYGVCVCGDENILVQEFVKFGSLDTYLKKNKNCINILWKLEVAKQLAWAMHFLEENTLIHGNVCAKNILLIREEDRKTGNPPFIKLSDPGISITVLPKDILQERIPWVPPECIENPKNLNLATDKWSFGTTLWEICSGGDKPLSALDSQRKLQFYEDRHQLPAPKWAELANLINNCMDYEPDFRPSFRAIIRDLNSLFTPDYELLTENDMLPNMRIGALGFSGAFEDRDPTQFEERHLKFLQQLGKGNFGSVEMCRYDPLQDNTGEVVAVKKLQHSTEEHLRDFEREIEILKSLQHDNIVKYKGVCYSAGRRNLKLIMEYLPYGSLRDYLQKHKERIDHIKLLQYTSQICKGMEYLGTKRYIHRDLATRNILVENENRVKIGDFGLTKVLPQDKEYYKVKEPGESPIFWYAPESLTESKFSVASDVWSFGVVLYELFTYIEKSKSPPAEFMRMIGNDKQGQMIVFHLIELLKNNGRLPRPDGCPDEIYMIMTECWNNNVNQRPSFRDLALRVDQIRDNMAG
Chain of FGFR3 (P22607 whole entry, looked up): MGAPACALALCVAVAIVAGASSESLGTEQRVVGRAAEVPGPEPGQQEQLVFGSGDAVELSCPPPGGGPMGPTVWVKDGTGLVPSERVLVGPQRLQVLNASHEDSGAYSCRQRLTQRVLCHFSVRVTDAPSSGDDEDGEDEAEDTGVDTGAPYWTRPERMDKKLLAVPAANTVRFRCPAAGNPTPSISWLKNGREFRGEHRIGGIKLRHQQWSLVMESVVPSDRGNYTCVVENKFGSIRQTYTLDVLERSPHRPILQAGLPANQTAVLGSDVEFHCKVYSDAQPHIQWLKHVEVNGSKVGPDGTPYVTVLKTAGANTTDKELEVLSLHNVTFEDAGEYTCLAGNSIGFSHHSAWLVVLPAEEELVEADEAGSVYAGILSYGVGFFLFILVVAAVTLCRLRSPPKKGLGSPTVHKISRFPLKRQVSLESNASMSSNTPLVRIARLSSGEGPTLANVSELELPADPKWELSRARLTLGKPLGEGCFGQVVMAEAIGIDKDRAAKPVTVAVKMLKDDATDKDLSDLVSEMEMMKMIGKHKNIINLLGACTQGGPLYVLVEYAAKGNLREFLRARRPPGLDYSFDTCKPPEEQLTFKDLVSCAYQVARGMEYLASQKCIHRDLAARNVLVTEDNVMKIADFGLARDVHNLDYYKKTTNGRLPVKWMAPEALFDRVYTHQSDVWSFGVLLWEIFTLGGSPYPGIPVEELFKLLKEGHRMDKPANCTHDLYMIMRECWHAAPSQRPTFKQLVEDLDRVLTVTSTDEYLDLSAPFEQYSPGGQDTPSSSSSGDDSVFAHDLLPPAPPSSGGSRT
Chain of FGFR1 (P11362 whole entry, looked up): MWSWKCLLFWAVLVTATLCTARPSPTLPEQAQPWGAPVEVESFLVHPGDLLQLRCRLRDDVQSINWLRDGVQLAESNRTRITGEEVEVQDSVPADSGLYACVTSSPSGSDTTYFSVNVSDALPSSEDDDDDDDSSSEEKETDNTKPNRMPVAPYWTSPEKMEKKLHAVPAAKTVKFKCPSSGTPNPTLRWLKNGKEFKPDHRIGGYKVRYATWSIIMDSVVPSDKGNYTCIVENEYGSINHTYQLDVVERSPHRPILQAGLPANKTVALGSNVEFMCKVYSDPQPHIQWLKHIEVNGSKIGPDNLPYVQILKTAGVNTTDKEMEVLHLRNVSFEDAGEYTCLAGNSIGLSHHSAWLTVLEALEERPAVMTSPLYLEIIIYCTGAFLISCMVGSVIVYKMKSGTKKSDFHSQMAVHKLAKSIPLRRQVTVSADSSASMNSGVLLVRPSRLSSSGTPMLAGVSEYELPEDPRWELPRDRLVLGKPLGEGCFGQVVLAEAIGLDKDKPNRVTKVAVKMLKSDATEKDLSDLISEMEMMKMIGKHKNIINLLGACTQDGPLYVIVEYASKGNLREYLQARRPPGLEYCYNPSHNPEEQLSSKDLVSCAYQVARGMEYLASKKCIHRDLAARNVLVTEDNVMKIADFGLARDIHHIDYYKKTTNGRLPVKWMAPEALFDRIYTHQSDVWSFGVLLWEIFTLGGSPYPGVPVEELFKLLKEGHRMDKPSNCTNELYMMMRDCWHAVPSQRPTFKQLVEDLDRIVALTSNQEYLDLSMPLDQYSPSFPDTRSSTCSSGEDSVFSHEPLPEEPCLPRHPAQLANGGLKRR
Chain of EPHB2 (P29323 whole entry, looked up): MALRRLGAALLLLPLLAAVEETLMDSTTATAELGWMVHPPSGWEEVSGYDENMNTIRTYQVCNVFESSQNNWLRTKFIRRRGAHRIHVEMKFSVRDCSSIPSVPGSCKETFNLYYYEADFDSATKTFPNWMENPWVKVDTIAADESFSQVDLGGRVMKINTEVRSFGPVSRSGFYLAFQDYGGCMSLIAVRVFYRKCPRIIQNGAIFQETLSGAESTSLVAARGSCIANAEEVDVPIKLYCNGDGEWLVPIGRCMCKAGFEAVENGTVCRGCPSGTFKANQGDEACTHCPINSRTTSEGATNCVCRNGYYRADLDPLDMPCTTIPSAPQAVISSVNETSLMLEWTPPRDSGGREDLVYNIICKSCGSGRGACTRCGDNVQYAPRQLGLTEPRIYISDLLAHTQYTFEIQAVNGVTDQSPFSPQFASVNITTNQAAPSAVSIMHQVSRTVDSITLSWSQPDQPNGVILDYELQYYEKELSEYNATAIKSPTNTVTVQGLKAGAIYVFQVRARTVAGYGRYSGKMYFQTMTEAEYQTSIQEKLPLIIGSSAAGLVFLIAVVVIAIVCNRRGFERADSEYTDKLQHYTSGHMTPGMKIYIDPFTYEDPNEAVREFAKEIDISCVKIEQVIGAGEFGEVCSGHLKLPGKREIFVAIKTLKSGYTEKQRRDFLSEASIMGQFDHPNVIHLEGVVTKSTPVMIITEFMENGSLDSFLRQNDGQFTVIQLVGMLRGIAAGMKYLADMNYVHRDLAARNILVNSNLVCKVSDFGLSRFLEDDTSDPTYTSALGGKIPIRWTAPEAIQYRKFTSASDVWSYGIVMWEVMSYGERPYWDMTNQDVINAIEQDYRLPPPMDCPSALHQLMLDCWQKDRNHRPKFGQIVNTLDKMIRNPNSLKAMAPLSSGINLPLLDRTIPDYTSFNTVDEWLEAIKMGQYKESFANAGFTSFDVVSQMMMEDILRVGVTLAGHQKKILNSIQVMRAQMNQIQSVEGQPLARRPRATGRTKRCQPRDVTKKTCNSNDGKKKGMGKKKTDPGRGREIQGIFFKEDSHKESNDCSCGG

Sequence | phosphorylation enrichment (EPHB2) | phosphorylation enrichment (FGFR3) | phosphorylation enrichment (FGFR1) | phosphorylation enrichment (Jak2) | phosphorylation enrichment (EPHB1) | phosphorylation enrichment (MERTK) | phosphorylation enrichment (c-Src) | phosphorylation enrichment (Fer (mouse)) | phosphorylation enrichment (c-Abl (mouse)) | phosphorylation enrichment (Fyn) | phosphorylation enrichment (Hck) | phosphorylation enrichment (Fes) | phosphorylation enrichment (AncSZ) | SH2 binding enrichment (SHP2-C SH2) | SH2 binding enrichment (Grb2 SH2) | SH2 binding enrichment (c-Src SH2)
GAVDTYCRHNY [HLA-DRB1_Y107_A102G] | 0.418 | 0.594 | 0.531 | 0.708 | 0.475 | 0.443 | 0.575 | 0.374 | 0.755 | 0.443 | 0.475 | 0.763 | 0.724 | 0.721 | 0.827 | 0.518
LQKNIYSEELR [LMNA_Y211_F206L] | 1.02 | 1.37 | 1.79 | 0.508 | 1.82 | 4.38 | 0.722 | 0.61 | 0.445 | 1.92 | 1.49 | 1.39 | 1.32 | 0.7 | 0.709 | 0.582
SNFRAYATEPQ [TNNI3_Y29_H34Q_YF] | 0.408 | 0.494 | 0.355 | 0.565 | 0.468 | 0.477 | 0.346 | 0.442 | 0.585 | 0.427 | 0.518 | 0.869 | 0.577 | 0.556 | 0.806 | 0.419
QAQMDYRRLQP [MPL_Y591] | 0.439 | 0.788 | 0.306 | 0.795 | 0.373 | 0.321 | 0.428 | 0.48 | 0.622 | 0.543 | 0.367 | 0.942 | 0.666 | 0.63 | 0.819 | 0.319
HAVYVYDICHV [TWNK_Y508] | 6.29 | 1.41 | 1.59 | 1.01 | 5.08 | 5.12 | 5.04 | 6.45 | 1.18 | 7.09 | 4.08 | 1.31 | 1.68 | 0.898 | 0.87 | 0.867
AHDGEYGAEAL [HBA1_Y25_A22D] | 0.62 | 0.645 | 0.513 | 0.819 | 0.556 | 0.451 | 0.424 | 0.534 | 0.608 | 0.552 | 0.445 | 1.08 | 0.97 | 0.563 | 0.83 | 0.493
QRIFQYIRSRF [DYRK1B_Y273_Q275R_YF] | 0.795 | 0.695 | 0.75 | 1.24 | 0.817 | 0.975 | 1.36 | 0.827 | 0.988 | 0.837 | 0.83 | 1.26 | 1.07 | 0.467 | 0.765 | 0.521
LHRAHYDLCHT [AHSG_Y314_R317C] | 0.542 | 0.648 | 0.513 | 0.88 | 0.572 | 0.435 | 0.495 | 0.516 | 0.777 | 0.401 | 0.47 | 1.12 | 0.814 | 0.935 | 1.13 | 2.25
NRKGKYFNVER [ANAPC4_Y469] | 0.448 | 0.451 | 0.473 | 0.379 | 0.367 | 0.411 | 0.487 | 0.351 | 0.631 | 0.386 | 0.695 | 0.575 | 0.478 | 0.51 | 0.498 | 0.299
VKPENYRRLDI [VHL_Y175] | 0.324 | 0.463 | 0.615 | 0.298 | 0.58 | 0.337 | 0.324 | 0.305 | 0.345 | 0.351 | 0.331 | 0.48 | 0.473 | 0.769 | 0.879 | 0.459
CDKEYYSVHNK [MET_Y1235_Y1230C] | 0.69 | 2.09 | 2.49 | 1.32 | 0.734 | 0.573 | 0.761 | 0.601 | 0.949 | 0.608 | 0.788 | 1.2 | 2.06 | 0.553 | 0.655 | 0.51
WRPFGYPHRRR [BCS1L_Y181_R183H] | 0.461 | 0.554 | 0.507 | 0.509 | 0.534 | 0.505 | 0.473 | 0.512 | 0.5 | 0.488 | 0.509 | 0.511 | 0.622 | 0.633 | 0.662 | 0.478
SAEKAYHEQLS [TUBA1A_Y282] | 0.424 | 0.572 | 0.604 | 0.619 | 0.462 | 0.418 | 0.369 | 0.425 | 0.511 | 0.428 | 0.443 | 0.844 | 0.558 | 0.785 | 0.951 | 0.506
SSREGYVRHHN [FAM83B_Y433_S435R] | 0.445 | 0.473 | 0.416 | 0.672 | 0.309 | 0.409 | 0.38 | 0.501 | 0.451 | 0.377 | 0.387 | 0.435 | 0.482 | 0.573 | 0.956 | 0.592
TENAGYFFRVS | 0.565 | 0.853 | 0.442 | 1.45 | 0.614 | 0.369 | 0.41 | 0.536 | 1.15 | 0.389 | 0.457 | 1.36 | 1.25 | 0.583 | 0.724 | 0.466
YSIAQYCCRMG [LRRK2_Y2023_G2019S] | 12 | 0.64 | 0.987 | 0.574 | 1.98 | 8.37 | 0.79 | 1.23 | 5.03 | 0.895 | 0.911 | 0.708 | 1.24 | 1.18 | 1.14 | 2.36
PNQRRYVYYYS [PTEN_Y174_S170N] | 1.57 | 1.61 | 3 | 1.37 | 1.07 | 3.81 | 1.06 | 0.817 | 0.841 | 1.86 | 1.29 | 2.29 | 2.88 | 3.49 | 1.17 | 2.17

Sequence | phosphorylation enrichment (EPHB2) | phosphorylation enrichment (FGFR3) | phosphorylation enrichment (FGFR1) | phosphorylation enrichment (Jak2) | phosphorylation enrichment (EPHB1) | phosphorylation enrichment (MERTK) | phosphorylation enrichment (c-Src) | phosphorylation enrichment (Fer (mouse)) | phosphorylation enrichment (c-Abl (mouse)) | phosphorylation enrichment (Fyn) | phosphorylation enrichment (Hck) | phosphorylation enrichment (Fes) | phosphorylation enrichment (AncSZ) | SH2 binding enrichment (SHP2-C SH2) | SH2 binding enrichment (Grb2 SH2) | SH2 binding enrichment (c-Src SH2)
KLADIYQAELR [GFAP_Y116_V115I] | 0.595 | 0.582 | 0.419 | 0.813 | 0.59 | 0.709 | 1.62 | 0.502 | 0.674 | 0.795 | 0.799 | 0.839 | 0.789 | 0.561 | 1.01 | 0.541
HILFRYPKEFQ [IDS_Y234_P231L] | 0.797 | 0.92 | 0.866 | 1.59 | 0.822 | 0.573 | 1.64 | 0.779 | 0.744 | 0.63 | 0.603 | 1.19 | 1.33 | 0.791 | 0.625 | 0.572
SSQHRYSTPHT [RAF1_Y232_A237T] | 0.37 | 0.369 | 0.352 | 0.487 | 0.343 | 0.405 | 0.423 | 0.425 | 0.448 | 0.348 | 0.312 | 0.477 | 0.45 | 0.876 | 0.813 | 3.04
ELTTCYRKKCS [CCBE1_Y70_C75S] | 0.565 | 0.501 | 0.536 | 1.12 | 0.431 | 0.467 | 0.444 | 0.362 | 0.64 | 0.454 | 0.458 | 0.816 | 0.764 | 0.741 | 1.25 | 1.04
EILLSDLRTGF [TGM1_Y365_Y365D_YF] | 0.477 | 0.56 | 0.487 | 0.69 | 0.42 | 0.378 | 0.418 | 0.576 | 0.631 | 0.464 | 0.478 | 0.891 | 0.779 | 0.567 | 0.7 | 0.417
PLTRSYIREKV [CYP2C8_Y243_A238P] | 0.484 | 0.48 | 0.341 | 0.591 | 0.276 | 0.406 | 0.448 | 0.262 | 0.305 | 0.474 | 0.312 | 0.413 | 0.582 | 0.904 | 0.923 | 0.351
FEPWVYSLSFE [PRKDC_Y647_F649L_YF] | 1.26 | 0.839 | 0.598 | 1.34 | 0.607 | 1.35 | 6.52 | 1.41 | 0.672 | 7.08 | 4.58 | 1.45 | 1.27 | 0.742 | 0.88 | 0.471
LLPNAYIFVVQ [L1CAM_Y418_A415P_YF] | 1.06 | 1.07 | 0.868 | 1.5 | 0.849 | 0.561 | 0.481 | 0.731 | 1.06 | 0.634 | 0.73 | 1.66 | 1.79 | 0.508 | 0.65 | 0.47
EKRDAYVSCLN [GSR_Y150_R153C] | 0.472 | 0.702 | 0.563 | 0.726 | 0.568 | 0.472 | 0.514 | 0.437 | 0.776 | 0.481 | 0.53 | 1.1 | 0.925 | 0.934 | 1.19 | 0.878
ACCLLYRGDVV [TUBA4A_Y319] | 0.557 | 1.34 | 3.27 | 0.853 | 0.507 | 0.709 | 5.88 | 0.758 | 0.482 | 0.565 | 0.645 | 0.889 | 0.947 | 0.849 | 1.05 | 0.776
TTEHIYGDNFF [UBA7_Y524] | 0.514 | 0.552 | 0.417 | 0.671 | 0.458 | 0.597 | 4.18 | 2.38 | 0.754 | 5.55 | 2.41 | 0.882 | 0.776 | 0.577 | 0.797 | 0.478
GFITSYREEEQ | 0.775 | 0.631 | 0.468 | 1.04 | 0.63 | 0.489 | 0.48 | 0.488 | 0.769 | 0.494 | 0.517 | 1.14 | 1.19 | 0.722 | 0.681 | 0.502
RHPFFYAPELL [ALB_Y174_YF] | 1.04 | 0.969 | 1.25 | 1.97 | 1.18 | 0.839 | 1.05 | 1.06 | 1.12 | 1.32 | 0.733 | 1.99 | 1.61 | 1.14 | 1.34 | 0.988
TKQLTYEEQDL [PIK3C3_Y310] | 0.653 | 0.791 | 0.576 | 1.19 | 0.655 | 0.483 | 0.539 | 0.649 | 1.01 | 0.529 | 0.552 | 1.38 | 1.27 | 0.686 | 0.786 | 0.541
EFAAGYNVKFD [GPX4_Y123] | 0.397 | 0.544 | 0.697 | 0.502 | 0.425 | 0.461 | 0.419 | 0.483 | 0.389 | 0.465 | 0.449 | 0.862 | 0.739 | 0.727 | 0.707 | 0.503
KGYCGYSYDDI [TMEM230_Y110_R108C] | 0.536 | 0.823 | 0.927 | 0.891 | 0.557 | 0.607 | 0.862 | 0.89 | 0.621 | 0.468 | 0.563 | 0.972 | 1.35 | 0.993 | 0.837 | 7.21
